# Measured values taken from the MegaScale stability set (Tsuboyama et al. 2023).
# B1: HEEH_KT_rd6_0007 (parent)
# chain: SIEEEIKKAEEAKEKGKTFIHGDFVATTEELLDELLKRLRKKL
# Variants of: B1
# Test: folding stability dG (cDNA display proteolysis); higher = more stable
# Conditions: PBS, room temperature
row,Variant,folding stability dG [kcal/mol]
1,SIEEEIKKIEEAKEKGKTFIHGDFVATTEELLDELLKRLRKKL,1.5
2,SIEEEIKKWEEAKEKGKTFIHGDFVATTEELLDELLKRLRKKL,0.879
3,SIEEEIKKQEEAKEKGKTFIHGDFVATTEELLDELLKRLRKKL,0.596
4,SIEEEIKKDEEAKEKGKTFIHGDFVATTEELLDELLKRLRKKL,0.579
5,SIEEEIKKGEEAKEKGKTFIHGDFVATTEELLDELLKRLRKKL,0.708
6,SIEEEIKKHEEAKEKGKTFIHGDFVATTEELLDELLKRLRKKL,0.516
7,SIEEEIKKKEEAKEKGKTFIHGDFVATTEELLDELLKRLRKKL,0.705
8,SIEEEIKKREEAKEKGKTFIHGDFVATTEELLDELLKRLRKKL,0.739
9,SIEEEIKKLEEAKEKGKTFIHGDFVATTEELLDELLKRLRKKL,1.44
10,SIEEEIKKSEEAKEKGKTFIHGDFVATTEELLDELLKRLRKKL,0.634
11,SIEEEIKKEEEAKEKGKTFIHGDFVATTEELLDELLKRLRKKL,0.511
12,SIEEEIKKVEEAKEKGKTFIHGDFVATTEELLDELLKRLRKKL,1.68
13,SIEEEIKKNEEAKEKGKTFIHGDFVATTEELLDELLKRLRKKL,0.608
14,SIEEEIKKMEEAKEKGKTFIHGDFVATTEELLDELLKRLRKKL,0.926
15,SIEEEIKKYEEAKEKGKTFIHGDFVATTEELLDELLKRLRKKL,0.662
16,SIEEEIKKTEEAKEKGKTFIHGDFVATTEELLDELLKRLRKKL,0.679
17,SIEEEIKKFEEAKEKGKTFIHGDFVATTEELLDELLKRLRKKL,0.698
18,SIEEEIKKCEEAKEKGKTFIHGDFVATTEELLDELLKRLRKKL,1.78
19,SIEEEIKKPEEAKEKGKTFIHGDFVATTEELLDELLKRLRKKL,0.556
20,SIEEEIKKAEECKEKGKTFIHGDFVATTEELLDELLKRLRKKL,1.78
21,SIEEEIKKAEELKEKGKTFIHGDFVATTEELLDELLKRLRKKL,0.688
22,SIEEEIKKAEEFKEKGKTFIHGDFVATTEELLDELLKRLRKKL,0.689
23,SIEEEIKKAEEKKEKGKTFIHGDFVATTEELLDELLKRLRKKL,0.526
24,SIEEEIKKAEEHKEKGKTFIHGDFVATTEELLDELLKRLRKKL,0.753

row,Variant,folding stability dG [kcal/mol]
1,SIEEEIKKAEEEKEKGKTFIHGDFVATTEELLDELLKRLRKKL,0.703
2,SIEEEIKKAEEDKEKGKTFIHGDFVATTEELLDELLKRLRKKL,0.737
3,SIEEEIKKAEEYKEKGKTFIHGDFVATTEELLDELLKRLRKKL,0.791
4,SIEEEIKKAEENKEKGKTFIHGDFVATTEELLDELLKRLRKKL,0.603
5,SIEEEIKKAEEMKEKGKTFIHGDFVATTEELLDELLKRLRKKL,0.749
6,SIEEEIKKAEETKEKGKTFIHGDFVATTEELLDELLKRLRKKL,0.618
7,SIEEEIKKAEERKEKGKTFIHGDFVATTEELLDELLKRLRKKL,0.639
8,SIEEEIKKAEESKEKGKTFIHGDFVATTEELLDELLKRLRKKL,0.754
9,SIEEEIKKAEEPKEKGKTFIHGDFVATTEELLDELLKRLRKKL,0.459
10,SIEEEIKKAEEGKEKGKTFIHGDFVATTEELLDELLKRLRKKL,0.482
11,SIEEEIKKAEEVKEKGKTFIHGDFVATTEELLDELLKRLRKKL,0.505
12,SIEEEIKKAEEIKEKGKTFIHGDFVATTEELLDELLKRLRKKL,0.771
13,SIEEEIKKAEEWKEKGKTFIHGDFVATTEELLDELLKRLRKKL,0.691
14,SIEEEIKKAEEQKEKGKTFIHGDFVATTEELLDELLKRLRKKL,0.606
15,SIEEEIKAAEEAKEKGKTFIHGDFVATTEELLDELLKRLRKKL,1.21
16,SIEEEIKQAEEAKEKGKTFIHGDFVATTEELLDELLKRLRKKL,1.22
17,SIEEEIKSAEEAKEKGKTFIHGDFVATTEELLDELLKRLRKKL,0.904
18,SIEEEIKGAEEAKEKGKTFIHGDFVATTEELLDELLKRLRKKL,0.922
19,SIEEEIKMAEEAKEKGKTFIHGDFVATTEELLDELLKRLRKKL,1.26
20,SIEEEIKWAEEAKEKGKTFIHGDFVATTEELLDELLKRLRKKL,1.02
21,SIEEEIKNAEEAKEKGKTFIHGDFVATTEELLDELLKRLRKKL,0.961
22,SIEEEIKEAEEAKEKGKTFIHGDFVATTEELLDELLKRLRKKL,0.75
23,SIEEEIKDAEEAKEKGKTFIHGDFVATTEELLDELLKRLRKKL,0.721
24,SIEEEIKYAEEAKEKGKTFIHGDFVATTEELLDELLKRLRKKL,0.777

row,Variant,folding stability dG [kcal/mol]
1,SIEEEIKHAEEAKEKGKTFIHGDFVATTEELLDELLKRLRKKL,0.921
2,SIEEEIKLAEEAKEKGKTFIHGDFVATTEELLDELLKRLRKKL,1.23
3,SIEEEIKVAEEAKEKGKTFIHGDFVATTEELLDELLKRLRKKL,0.672
4,SIEEEIKRAEEAKEKGKTFIHGDFVATTEELLDELLKRLRKKL,1.42
5,SIEEEIKTAEEAKEKGKTFIHGDFVATTEELLDELLKRLRKKL,0.724
6,SIEEEIKIAEEAKEKGKTFIHGDFVATTEELLDELLKRLRKKL,0.785
7,SIEEEIKPAEEAKEKGKTFIHGDFVATTEELLDELLKRLRKKL,0.542
8,SIEEEIKFAEEAKEKGKTFIHGDFVATTEELLDELLKRLRKKL,0.758
9,SIEEEIKKACEAKEKGKTFIHGDFVATTEELLDELLKRLRKKL,1.49
10,SIEEEIKKAFEAKEKGKTFIHGDFVATTEELLDELLKRLRKKL,1.07
11,SIEEEIKKATEAKEKGKTFIHGDFVATTEELLDELLKRLRKKL,1.06
12,SIEEEIKKAWEAKEKGKTFIHGDFVATTEELLDELLKRLRKKL,1.06
13,SIEEEIKKAKEAKEKGKTFIHGDFVATTEELLDELLKRLRKKL,1.04
14,SIEEEIKKAPEAKEKGKTFIHGDFVATTEELLDELLKRLRKKL,0.607
15,SIEEEIKKAIEAKEKGKTFIHGDFVATTEELLDELLKRLRKKL,1.32
16,SIEEEIKKAHEAKEKGKTFIHGDFVATTEELLDELLKRLRKKL,0.9
17,SIEEEIKKAGEAKEKGKTFIHGDFVATTEELLDELLKRLRKKL,0.706
18,SIEEEIKKAMEAKEKGKTFIHGDFVATTEELLDELLKRLRKKL,1.44
19,SIEEEIKKAYEAKEKGKTFIHGDFVATTEELLDELLKRLRKKL,1
20,SIEEEIKKAAEAKEKGKTFIHGDFVATTEELLDELLKRLRKKL,0.805
21,SIEEEIKKANEAKEKGKTFIHGDFVATTEELLDELLKRLRKKL,0.992
22,SIEEEIKKAVEAKEKGKTFIHGDFVATTEELLDELLKRLRKKL,1.17
23,SIEEEIKKALEAKEKGKTFIHGDFVATTEELLDELLKRLRKKL,1.58
24,SIEEEIKKAREAKEKGKTFIHGDFVATTEELLDELLKRLRKKL,1.02

row,Variant,folding stability dG [kcal/mol]
1,SIEEEIKKASEAKEKGKTFIHGDFVATTEELLDELLKRLRKKL,0.844
2,SIEEEIKKAQEAKEKGKTFIHGDFVATTEELLDELLKRLRKKL,1.2
3,SIEEEIKKADEAKEKGKTFIHGDFVATTEELLDELLKRLRKKL,0.699
4,SIEEEIPKAEEAKEKGKTFIHGDFVATTEELLDELLKRLRKKL,0.656
5,SIEEEITKAEEAKEKGKTFIHGDFVATTEELLDELLKRLRKKL,0.994
6,SIEEEISKAEEAKEKGKTFIHGDFVATTEELLDELLKRLRKKL,0.891
7,SIEEEIEKAEEAKEKGKTFIHGDFVATTEELLDELLKRLRKKL,0.935
8,SIEEEIGKAEEAKEKGKTFIHGDFVATTEELLDELLKRLRKKL,0.824
9,SIEEEIWKAEEAKEKGKTFIHGDFVATTEELLDELLKRLRKKL,0.964
10,SIEEEIRKAEEAKEKGKTFIHGDFVATTEELLDELLKRLRKKL,1.6
11,SIEEEIVKAEEAKEKGKTFIHGDFVATTEELLDELLKRLRKKL,0.878
12,SIEEEIFKAEEAKEKGKTFIHGDFVATTEELLDELLKRLRKKL,0.95
13,SIEEEIHKAEEAKEKGKTFIHGDFVATTEELLDELLKRLRKKL,1.06
14,SIEEEIMKAEEAKEKGKTFIHGDFVATTEELLDELLKRLRKKL,1.16
15,SIEEEIYKAEEAKEKGKTFIHGDFVATTEELLDELLKRLRKKL,0.923
16,SIEEEINKAEEAKEKGKTFIHGDFVATTEELLDELLKRLRKKL,0.942
17,SIEEEIQKAEEAKEKGKTFIHGDFVATTEELLDELLKRLRKKL,1.25
18,SIEEEILKAEEAKEKGKTFIHGDFVATTEELLDELLKRLRKKL,1.14
19,SIEEEIIKAEEAKEKGKTFIHGDFVATTEELLDELLKRLRKKL,1.01
20,SIEEEIKKAEEAFEKGKTFIHGDFVATTEELLDELLKRLRKKL,0.912
21,SIEEEIKKAEEADEKGKTFIHGDFVATTEELLDELLKRLRKKL,0.676
22,SIEEEIKKAEEACEKGKTFIHGDFVATTEELLDELLKRLRKKL,1.82
23,SIEEEIKKAEEAEEKGKTFIHGDFVATTEELLDELLKRLRKKL,0.58
24,SIEEEIKKAEEAAEKGKTFIHGDFVATTEELLDELLKRLRKKL,0.86

row,Variant,folding stability dG [kcal/mol]
1,SIEEEIKKAEEAIEKGKTFIHGDFVATTEELLDELLKRLRKKL,0.852
2,SIEEEIKKAEEAGEKGKTFIHGDFVATTEELLDELLKRLRKKL,0.684
3,SIEEEIKKAEEAHEKGKTFIHGDFVATTEELLDELLKRLRKKL,0.747
4,SIEEEIKKAEAAKEKGKTFIHGDFVATTEELLDELLKRLRKKL,1.16
5,SIEEEIKKAELAKEKGKTFIHGDFVATTEELLDELLKRLRKKL,1.1
6,SIEEEIKKAENAKEKGKTFIHGDFVATTEELLDELLKRLRKKL,0.868
7,SIEEEIKKAEQAKEKGKTFIHGDFVATTEELLDELLKRLRKKL,1.06
8,SIEEEIKKAEMAKEKGKTFIHGDFVATTEELLDELLKRLRKKL,1.05
9,SIEEEIKKAEPAKEKGKTFIHGDFVATTEELLDELLKRLRKKL,0.576
10,SIEEEIKKAEIAKEKGKTFIHGDFVATTEELLDELLKRLRKKL,1.03
11,SIEEEIKKAECAKEKGKTFIHGDFVATTEELLDELLKRLRKKL,1.5
12,SIEEEIKKAETAKEKGKTFIHGDFVATTEELLDELLKRLRKKL,1.04
13,SIEEEIKKAERAKEKGKTFIHGDFVATTEELLDELLKRLRKKL,0.941
14,SIEEEIKKAESAKEKGKTFIHGDFVATTEELLDELLKRLRKKL,0.928
15,SIEEEIKKAEKAKEKGKTFIHGDFVATTEELLDELLKRLRKKL,0.817
16,SIEEEIKKAEWAKEKGKTFIHGDFVATTEELLDELLKRLRKKL,1.2
17,SIEEEIKKAEHAKEKGKTFIHGDFVATTEELLDELLKRLRKKL,0.939
18,SIEEEIKKAEVAKEKGKTFIHGDFVATTEELLDELLKRLRKKL,0.953
19,SIEEEIKKAEFAKEKGKTFIHGDFVATTEELLDELLKRLRKKL,0.946
20,SIEEEIKKAEGAKEKGKTFIHGDFVATTEELLDELLKRLRKKL,0.705
21,SIEEEIKKAEYAKEKGKTFIHGDFVATTEELLDELLKRLRKKL,1.17
22,SIEEEIKKAEDAKEKGKTFIHGDFVATTEELLDELLKRLRKKL,1.27
